Reference: the supplement of paper PMC10065799, “High-throughput profiling of sequence recognition by tyrosine kinases and SH2 domains using bacterial peptide display” (eLife, 2023)

The sequences below were run against Grb2 SH2 (UniProt P62993) (assay: SH2 binding enrichment of the phosphorylated peptide, bacterial display (enrichment ratio); higher = better substrate or ligand; peptides without Tyr show the background).
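Throughout, for SH2 binding enrichment of the phosphorylated peptide, bacterial display: peptide library displayed on the E. coli surface as eCPX fusions, selected cells deep-sequenced, score is each peptide's frequency after selection divided by its frequency in the input.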
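Throughout, for phosphorylation enrichment, bacterial display: 11-residue human phosphosite peptides and single-mutation variants displayed on the E. coli surface, counted by deep sequencing, each peptide's frequency after selection divided by its frequency in the unselected input library; frequency after pTyr selection over input frequency; kinase dosed for 20-30% of maximal phosphorylation in three min.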

Sequence of Grb2 SH2 (P62993 whole entry, looked up, the tested form may be a part): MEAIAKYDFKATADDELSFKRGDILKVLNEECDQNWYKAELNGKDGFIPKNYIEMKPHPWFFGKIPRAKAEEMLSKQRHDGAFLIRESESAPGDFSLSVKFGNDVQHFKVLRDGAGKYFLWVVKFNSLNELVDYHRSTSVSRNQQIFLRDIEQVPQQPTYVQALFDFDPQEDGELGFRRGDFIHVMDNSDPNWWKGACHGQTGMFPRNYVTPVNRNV

In order of rising SH2 binding enrichment:
1. CSRRLYQLTKL [AR_Y858_F857L]  0.641
2. GRDVIYKGFED [NFU1_Y194_G190R]  0.696
3. LSIQCYLRALD [HMGCS2_Y262]  0.708
4. FDAHNYHPLPV [OAT_Y55_G51D_YF]  0.731
5. LGRGKYSEVFE [CSNK2A1_Y50]  0.739
6. GSESDYIIMPN [SCARB1_Y133_V135I]  0.762
7. DWQQEYVLNES [TGM1_Y267_R264Q]  0.766
8. GYRVCYTPDSR [PTPRF_Y451_Y450C]  0.769
9. ERLWDYGMSSS [F8_Y1728]  0.779
10. LDTFIYDAAVL [GRIN2A_Y730_A727T]  0.785
11. YKEQGYHRLPS [RIN1_Y681_P686S]  0.802
12. PDMHSYVVRYN [GRIN2D_Y732_M733V]  0.812
13. SVTCTYSPAIN [TP53_Y126_L130I]  0.817
14. SDVLSYGVTMW [ZAP70_Y525_W523L]  0.837
15. YRQNGYIPGSN [PCDHGA1_Y895_V894G]  0.846
16. LGRTRYQHVTG [MIPEP_Y510]  0.881
17. HKGASYAFRLS [PTPRD_Y891_V892A]  0.891
18. RLQEDYDHSFF [ESD_Y258_G257D_YF]  0.901
19. VNFGAYINFFK [GLB1_Y488_D491Y_YF]  0.918
20. PSQRRYLFFFS [PTEN_Y174_V175L_YF]  0.936
21. LHVGFYESDVM [A2M_Y708_R704H]  0.95
22. AFLLLYFNDTH [BMP15_Y235]  1.01
23. PMDTFYDSTRG [DYNC2H1_Y2231_YF]  1.04
24. NSIGNYFKPWF [DHCR24_Y299_YF]  1.05
25. RMETEYGPSVT [MXRA5_Y2717]  1.07
26. PMQLPYDSRWE [PDGFRA_Y582]  1.14
27. GSSKIYFLHPD [TLR5_Y108]  1.16
28. CTTIHYIFMCN [TP53_Y234_N235I_YF]  1.19
29. INNIDYYKNTT [FGFR2_Y656_K659N]  1.22
30. TARWEYMHSPS [CPOX_Y429]  1.25
31. TFRPPYYHRNC [HGD_Y333]  1.38
32. FFVVEYRDQKP [MUC17_Y4332_YF]  1.6
33. GHLYANDWISI [BEST1_Y227_Y227N]  24.5

Each sequence was assayed against c-Src SH2 in the same assay as above.

In order of falling SH2 binding enrichment:
1. GHLYANDWISI [BEST1_Y227_Y227N]  18.4
2. LHVGFYESDVM [A2M_Y708_R704H]  4.23
3. LGRGKYSEVFE [CSNK2A1_Y50]  1.44
4. TFRPPYYHRNC [HGD_Y333]  1.18
5. PMDTFYDSTRG [DYNC2H1_Y2231_YF]  1.08
6. NSIGNYFKPWF [DHCR24_Y299_YF]  0.899
7. FFVVEYRDQKP [MUC17_Y4332_YF]  0.861
8. CTTIHYIFMCN [TP53_Y234_N235I_YF]  0.858
9. FDAHNYHPLPV [OAT_Y55_G51D_YF]  0.841
10. LDTFIYDAAVL [GRIN2A_Y730_A727T]  0.767
11. YKEQGYHRLPS [RIN1_Y681_P686S]  0.751
12. GSSKIYFLHPD [TLR5_Y108]  0.751
13. LGRTRYQHVTG [MIPEP_Y510]  0.748
14. HKGASYAFRLS [PTPRD_Y891_V892A]  0.698
15. TARWEYMHSPS [CPOX_Y429]  0.688
16. INNIDYYKNTT [FGFR2_Y656_K659N]  0.662
17. PSQRRYLFFFS [PTEN_Y174_V175L_YF]  0.655
18. VNFGAYINFFK [GLB1_Y488_D491Y_YF]  0.611
19. PMQLPYDSRWE [PDGFRA_Y582]  0.605
20. ERLWDYGMSSS [F8_Y1728]  0.597
21. GYRVCYTPDSR [PTPRF_Y451_Y450C]  0.591
22. RMETEYGPSVT [MXRA5_Y2717]  0.584
23. AFLLLYFNDTH [BMP15_Y235]  0.566
24. PDMHSYVVRYN [GRIN2D_Y732_M733V]  0.544
25. CSRRLYQLTKL [AR_Y858_F857L]  0.524
26. GRDVIYKGFED [NFU1_Y194_G190R]  0.51
27. DWQQEYVLNES [TGM1_Y267_R264Q]  0.506
28. SDVLSYGVTMW [ZAP70_Y525_W523L]  0.474
29. LSIQCYLRALD [HMGCS2_Y262]  0.454
30. YRQNGYIPGSN [PCDHGA1_Y895_V894G]  0.452
31. SVTCTYSPAIN [TP53_Y126_L130I]  0.435
32. GSESDYIIMPN [SCARB1_Y133_V135I]  0.431
33. RLQEDYDHSFF [ESD_Y258_G257D_YF]  0.339

These sequences were tested against SHP2-C SH2 in the same assay as above.

In order of rising SH2 binding enrichment:
1. CSRRLYQLTKL [AR_Y858_F857L]  0.449
2. LSIQCYLRALD [HMGCS2_Y262]  0.49
3. SVTCTYSPAIN [TP53_Y126_L130I]  0.5
4. PMQLPYDSRWE [PDGFRA_Y582]  0.6
5. RMETEYGPSVT [MXRA5_Y2717]  0.622
6. FDAHNYHPLPV [OAT_Y55_G51D_YF]  0.634
7. PMDTFYDSTRG [DYNC2H1_Y2231_YF]  0.646
8. DWQQEYVLNES [TGM1_Y267_R264Q]  0.681
9. HKGASYAFRLS [PTPRD_Y891_V892A]  0.696
10. SDVLSYGVTMW [ZAP70_Y525_W523L]  0.699
11. LGRGKYSEVFE [CSNK2A1_Y50]  0.701
12. GYRVCYTPDSR [PTPRF_Y451_Y450C]  0.717
13. LHVGFYESDVM [A2M_Y708_R704H]  0.721
14. ERLWDYGMSSS [F8_Y1728]  0.742
15. LGRTRYQHVTG [MIPEP_Y510]  0.767
16. GRDVIYKGFED [NFU1_Y194_G190R]  0.769
17. TARWEYMHSPS [CPOX_Y429]  0.778
18. VNFGAYINFFK [GLB1_Y488_D491Y_YF]  0.784
19. AFLLLYFNDTH [BMP15_Y235]  0.79
20. INNIDYYKNTT [FGFR2_Y656_K659N]  0.793
21. PDMHSYVVRYN [GRIN2D_Y732_M733V]  0.825
22. YKEQGYHRLPS [RIN1_Y681_P686S]  0.853
23. GSESDYIIMPN [SCARB1_Y133_V135I]  0.873
24. YRQNGYIPGSN [PCDHGA1_Y895_V894G]  0.896
25. RLQEDYDHSFF [ESD_Y258_G257D_YF]  0.914
26. LDTFIYDAAVL [GRIN2A_Y730_A727T]  0.921
27. CTTIHYIFMCN [TP53_Y234_N235I_YF]  1.1
28. PSQRRYLFFFS [PTEN_Y174_V175L_YF]  1.15
29. GSSKIYFLHPD [TLR5_Y108]  1.18
30. FFVVEYRDQKP [MUC17_Y4332_YF]  1.55
31. TFRPPYYHRNC [HGD_Y333]  1.86
32. GHLYANDWISI [BEST1_Y227_Y227N]  3.5
33. NSIGNYFKPWF [DHCR24_Y299_YF]  5.38

The sequences below were run on AncSZ (assay: phosphorylation enrichment, bacterial display (enrichment ratio); higher = better substrate or ligand; peptides without Tyr show the background).

In order of rising phosphorylation enrichment:
1. YRQNGYIPGSN [PCDHGA1_Y895_V894G]  0.485
2. YKEQGYHRLPS [RIN1_Y681_P686S]  0.531
3. CSRRLYQLTKL [AR_Y858_F857L]  0.666
4. LGRTRYQHVTG [MIPEP_Y510]  0.694
5. TFRPPYYHRNC [HGD_Y333]  0.721
6. INNIDYYKNTT [FGFR2_Y656_K659N]  0.724
7. FDAHNYHPLPV [OAT_Y55_G51D_YF]  0.731
8. GRDVIYKGFED [NFU1_Y194_G190R]  0.77
9. GHLYANDWISI [BEST1_Y227_Y227N]  0.819
10. GSSKIYFLHPD [TLR5_Y108]  0.849
11. SDVLSYGVTMW [ZAP70_Y525_W523L]  0.922
12. TARWEYMHSPS [CPOX_Y429]  0.927
13. RMETEYGPSVT [MXRA5_Y2717]  0.937
14. CTTIHYIFMCN [TP53_Y234_N235I_YF]  0.946
15. ERLWDYGMSSS [F8_Y1728]  0.971
16. LGRGKYSEVFE [CSNK2A1_Y50]  1.01
17. NSIGNYFKPWF [DHCR24_Y299_YF]  1.03
18. FFVVEYRDQKP [MUC17_Y4332_YF]  1.05
19. PMQLPYDSRWE [PDGFRA_Y582]  1.05
20. HKGASYAFRLS [PTPRD_Y891_V892A]  1.06
21. GYRVCYTPDSR [PTPRF_Y451_Y450C]  1.07
22. PMDTFYDSTRG [DYNC2H1_Y2231_YF]  1.08
23. PDMHSYVVRYN [GRIN2D_Y732_M733V]  1.13
24. AFLLLYFNDTH [BMP15_Y235]  1.15
25. LHVGFYESDVM [A2M_Y708_R704H]  1.18
26. VNFGAYINFFK [GLB1_Y488_D491Y_YF]  1.38
27. SVTCTYSPAIN [TP53_Y126_L130I]  1.5
28. RLQEDYDHSFF [ESD_Y258_G257D_YF]  1.74
29. PSQRRYLFFFS [PTEN_Y174_V175L_YF]  1.86
30. LDTFIYDAAVL [GRIN2A_Y730_A727T]  1.97
31. DWQQEYVLNES [TGM1_Y267_R264Q]  2.03
32. LSIQCYLRALD [HMGCS2_Y262]  2.06
33. GSESDYIIMPN [SCARB1_Y133_V135I]  2.88
